The source of these data is US20240209456, “METHODS AND COMPOSITIONS RELATED TO CELL-CYCLE RNA's” (BETH ISRAEL DEACONESS MEDICAL CENTER, published 2024).

One series concerns the target T1, H2A.Z N-terminal peptide.
T1 chain: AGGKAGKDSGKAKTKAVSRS
Nature of the series: EMSA; peptide 1 uM-10 mM, glutaraldehyde crosslink. To be noted: protein: synthetic; tags: synthetic peptide, AnaSpec; label: 5'-32P; predicted stem-loop. The procedure:
(§1) Indeed, mutation of RM9A abolishing the predicted stem-loop structure, did change the strength and the mobility of the RNA-TIP60 complexes (Mut RM9A; FIG. 3E, lane 5).
(§2) RNA oligonucleotides (15 pmol) were end-labeled with [γ-³²P] ATP (Perkin Elmer) and T4 polynucleotide kinase (New England Biolabs). Reactions were incubated at 37° C. for 1 h and then passed through G-25 spin columns (GE Healthcare) according to the manufacturer's instructions to remove unincorporated radioactivity. Labeled samples were gel-purified on 10% polyacrylamide gels. Binding reactions were carried out in 10 μL volumes in the following buffer: 5 mM Tris pH 7.4, 5 mM MgCl₂, 1 mM DTT, 3% v/v glycerol, 100 mM NaCl. 5 μg of full length purified H2A.Z (Abcam) and TIP60 (SignalChem) proteins were incubated with 1.1 nM of ³²P-labeled ss RNAs. All reactions were assembled on ice and then incubated at room temperature for 30 min. Samples were loaded onto 6% native polyacrylamide gels (0.5×TBE) at 4° C. for 3 h at 140 V. Various concentrations (1 μM-10 mM) of H2A.Z and K7 acetylated H2A.Z peptides (AnaSpec) were incubated with a fixed amount of probe in 50 mM Tris-HCl pH 7.5, 100 mM NaCl, 0.4 mM EDTA, and 40 U/ml RNasin, 1 mM DTT, 50% glycerol in a final volume of 10 μL. Thereafter, 1 μl glutaraldehyde (0.2% final concentration) was added into the mixture and incubated at room temperature for 15 minutes. […]

For series [1], the target named is T2, Histone H2A.Z, full length (UniProt P0C0S5 P0C0S5:2-128). Nature of the series: EMSA; 5 mM Tris pH 7.4, 5 mM MgCl2, 100 mM NaCl, RT. To be noted: tags: Abcam; label: 5'-32P; predicted stem-loop. The procedure:
as §1, §2

Series [2] addresses T3, TIP60 (KAT5), full length (UniProt Q92993 Q92993:1-513). Described as above. To be noted: tags: SignalChem; label: 5'-32P; predicted stem-loop. The procedure:
as §1, §2

The target in series [3] is T4, acH2A.Z N-terminal peptide (K7 acetylated).
T4 chain: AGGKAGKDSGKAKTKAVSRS
The series is described as follows: EMSA; K7 acetylation did not abrogate binding; glutaraldehyde crosslink. To be noted: protein: synthetic, tags: synthetic peptide, AnaSpec, label: 5'-32P, predicted stem-loop. The procedure: as §1, §2

Series [4] concerns the target T2, Histone H2A.Z, full length. Nature of the series: EMSA; no detectable RNP. As to conditions: tags: Abcam; label: 5'-32P. Here is the method: as §1
(§3) RNA oligonucleotides (15 pmol) were end-labeled with [γ-³²P] ATP (Perkin Elmer) and T4 polynucleotide kinase (New England Biolabs). Reactions were incubated at 37° C. for 1 h and then passed through G-25 spin columns (GE Healthcare) according to the manufacturer's instructions to remove unincorporated radioactivity. Labeled samples were gel-purified on 10% polyacrylamide gels. Binding reactions were carried out in 10 μL volumes in the following buffer: 5 mM Tris pH 7.4, 5 mM MgCl₂, 1 mM DTT, 3% v/v glycerol, 100 mM NaCl. 5 μg of full length purified H2A.Z (Abcam) and TIP60 (SignalChem) proteins were incubated with 1.1 nM of ³²P-labeled ss RNAs. All reactions were assembled on ice and then incubated at room temperature for 30 min. Samples were loaded onto 6% native polyacrylamide gels (0.5×TBE) at 4° C. for 3 h at 140 V. Various concentrations (1 μM-10 mM) of H2A.Z and K7 acetylated H2A.Z peptides (AnaSpec) were incubated with a fixed amount of probe in 50 mM Tris-HCl pH 7.5, 100 mM NaCl, 0.4 mM EDTA, and 40 U/ml RNasin, 1 mM DTT, 50% glycerol in a final volume of 10 μL. Thereafter, 1 μl glutaraldehyde (0.2% final concentration) was added into the mixture and incubated at room temperature for 15 minutes. Samples were loaded onto 10% native polyacrylamide gels (0.5×TBE) at 4° C. for 3 h at 170 V. All gels were dried upon fixation with Methanol and Acetic Acid and exposed to X-ray film.
Background: Mobility shift assays separate free from complexed probe on a gel.

For series [5], the target named is T3, TIP60 (KAT5), full length. The series is described as follows: EMSA; no detectable RNP. To be noted: tags: SignalChem; label: 5'-32P. Here is the method:
as §1, §3

T3 sequence (Q92993 whole entry, one chain of several): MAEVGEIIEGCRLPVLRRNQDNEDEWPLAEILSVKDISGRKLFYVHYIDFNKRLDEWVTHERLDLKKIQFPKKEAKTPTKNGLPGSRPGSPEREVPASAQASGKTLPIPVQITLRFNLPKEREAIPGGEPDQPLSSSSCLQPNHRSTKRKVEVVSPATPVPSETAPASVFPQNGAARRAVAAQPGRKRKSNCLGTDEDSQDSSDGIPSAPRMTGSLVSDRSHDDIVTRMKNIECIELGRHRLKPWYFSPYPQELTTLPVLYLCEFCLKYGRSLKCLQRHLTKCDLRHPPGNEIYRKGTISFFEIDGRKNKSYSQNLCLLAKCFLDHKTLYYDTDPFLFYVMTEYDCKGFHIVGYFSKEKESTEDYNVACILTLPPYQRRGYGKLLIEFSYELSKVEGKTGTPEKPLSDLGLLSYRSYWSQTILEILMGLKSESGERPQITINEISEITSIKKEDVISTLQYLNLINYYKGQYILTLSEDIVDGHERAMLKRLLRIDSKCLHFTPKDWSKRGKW

B1: RM9A (ssRNA)
RNA: GGCGUGGCGGUGGGCGCGCAGU
B1: the binding result (with H2A.Z N-terminal peptide; in series [1]; in series [2]; in series [3]) was “binds” in each case.

B2: UR2 (ssRNA)
RNA: CUUUCCUCCACUCUCCCUGGGA
For the molecule B2, the binding result in series [4] and in series [5] was “no binding” each time.

B3: UR3 (ssRNA)
RNA: GCCCUUUCCCCAGCCUUAGCGA
With B3, the binding result in series [4] and in series [5] was “no binding” in each case.

B4: UR1 (ssRNA)
RNA: GCGCCCUGCAGCCUGGUACGCG
For the molecule B4, the binding result in series [4] and in series [5] was “no binding” in each case.
